In the supplement of paper PMC9428881:
± gives the standard error.

Test: background-corrected fluorescence of 3'-dye-labeled ssDNA relative to brightest sequence (3'-GCGCG) (fraction); higher = brighter dye fluorescence (less quenching)
Conditions: dye: Cy3 (3' terminal)
Procedure: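 Single-stranded DNA is synthesized in situ on glass microarrays by 5'->3' photolithographic synthesis, with a Cy3 or Cy5 phosphoramidite coupled at the 3' end next to all 1024 permuted pentamers P1-P5. The construct is 5'-T5-(ACGT minus P5..P1 trinucleotides)-T15-P5P4P3P2P1-dye-3'; the dye is a 3' terminal modification, not part of the sequence. Arrays were scanned at 532 nm (Cy3) or 635 nm (Cy5), background from unlabeled oligos was subtracted, and values are averaged over 10 replicate features per array and at least 3 independent syntheses.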

Row | Sequence | background-corrected fluorescence
1 | TTTTTGCATGAGCATCAGCATTTTTTTTTTTTTTTTCTGT [TGTCT] | 0.594 ± 0.015
2 | TTTTTGCATGAGCATCATCATTTTTTTTTTTTTTTTCTGG [GGTCT] | 0.563 ± 0.024
3 | TTTTTGCATGAGCATCATGATTTTTTTTTTTTTTTTCTGC [CGTCT] | 0.491 ± 0.029
4 | TTTTTGCATGAGCATCATGCTTTTTTTTTTTTTTTTCTGA [AGTCT] | 0.611 ± 0.018
5 | TTTTTGCATGAGCATGAGCATTTTTTTTTTTTTTTTCTCT | 0.464 ± 0.014
6 | TTTTTGCATGAGCATGATCATTTTTTTTTTTTTTTTCTCG [GCTCT] | 0.506 ± 0.02
7 | TTTTTGCATGAGCATGATGATTTTTTTTTTTTTTTTCTCC [CCTCT] | 0.335 ± 0.042
8 | TTTTTGCATGAGCATGATGCTTTTTTTTTTTTTTTTCTCA [ACTCT] | 0.456 ± 0.019
9 | TTTTTGCATGAGCATGCGCATTTTTTTTTTTTTTTTCTAT [TATCT] | 0.501 ± 0.027
10 | TTTTTGCATGAGCATGCTCATTTTTTTTTTTTTTTTCTAG [GATCT] | 0.52 ± 0.027
11 | TTTTTGCATGAGCATGCTGATTTTTTTTTTTTTTTTCTAC [CATCT] | 0.409 ± 0.017
12 | TTTTTGCATGAGCATGCTGCTTTTTTTTTTTTTTTTCTAA [AATCT] | 0.539 ± 0.023
13 | TTTTTGCATGATCAGCAGCATTTTTTTTTTTTTTTTCGTT [TTGCT] | 0.55 ± 0.029
14 | TTTTTGCATGATCAGCATCATTTTTTTTTTTTTTTTCGTG [GTGCT] | 0.525 ± 0.015
15 | TTTTTGCATGATCAGCATGATTTTTTTTTTTTTTTTCGTC [CTGCT] | 0.467 ± 0.034
16 | TTTTTGCATGATCAGCATGCTTTTTTTTTTTTTTTTCGTA | 0.59 ± 0.023
17 | TTTTTGCATGATCATCAGCATTTTTTTTTTTTTTTTCGGT [TGGCT] | 0.66 ± 0.028
18 | TTTTTGCATGATCATCATCATTTTTTTTTTTTTTTTCGGG [GGGCT] | 0.664 ± 0.02
19 | TTTTTGCATGATCATCATGATTTTTTTTTTTTTTTTCGGC [CGGCT] | 0.546 ± 0.031
20 | TTTTTGCATGATCATCATGCTTTTTTTTTTTTTTTTCGGA [AGGCT] | 0.734 ± 0.076
21 | TTTTTGCATGATCATGAGCATTTTTTTTTTTTTTTTCGCT | 0.486 ± 0.0071
22 | TTTTTGCATGATCATGATCATTTTTTTTTTTTTTTTCGCG [GCGCT] | 0.93 ± 0.023

Row | Sequence | background-corrected fluorescence
23 | TTTTTGCATGATCATGATGATTTTTTTTTTTTTTTTCGCC [CCGCT] | 0.462 ± 0.036
24 | TTTTTGCATGATCATGATGCTTTTTTTTTTTTTTTTCGCA [ACGCT] | 0.569 ± 0.035
25 | TTTTTGCATGATCATGCGCATTTTTTTTTTTTTTTTCGAT [TAGCT] | 0.64 ± 0.011
26 | TTTTTGCATGATCATGCTCATTTTTTTTTTTTTTTTCGAG [GAGCT] | 0.616 ± 0.029
27 | TTTTTGCATGATCATGCTGATTTTTTTTTTTTTTTTCGAC [CAGCT] | 0.448 ± 0.03
28 | TTTTTGCATGATCATGCTGCTTTTTTTTTTTTTTTTCGAA [AAGCT] | 0.632 ± 0.0073
29 | TTTTTGCATGATGAGCAGCATTTTTTTTTTTTTTTTCCTT | 0.435 ± 0.027
30 | TTTTTGCATGATGAGCATCATTTTTTTTTTTTTTTTCCTG [GTCCT] | 0.475 ± 0.028
31 | TTTTTGCATGATGAGCATGATTTTTTTTTTTTTTTTCCTC [CTCCT] | 0.351 ± 0.02
32 | TTTTTGCATGATGAGCATGCTTTTTTTTTTTTTTTTCCTA [ATCCT] | 0.455 ± 0.019
33 | TTTTTGCATGATGATCAGCATTTTTTTTTTTTTTTTCCGT [TGCCT] | 0.613 ± 0.021
34 | TTTTTGCATGATGATCATCATTTTTTTTTTTTTTTTCCGG [GGCCT] | 0.617 ± 0.0071
35 | TTTTTGCATGATGATCATGATTTTTTTTTTTTTTTTCCGC [CGCCT] | 0.504 ± 0.022
36 | TTTTTGCATGATGATCATGCTTTTTTTTTTTTTTTTCCGA [AGCCT] | 0.581 ± 0.026
37 | TTTTTGCATGATGATGAGCATTTTTTTTTTTTTTTTCCCT | 0.472 ± 0.027
38 | TTTTTGCATGATGATGATCATTTTTTTTTTTTTTTTCCCG [GCCCT] | 0.509 ± 0.013
39 | TTTTTGCATGATGATGATGATTTTTTTTTTTTTTTTCCCC [CCCCT] | 0.33 ± 0.022
40 | TTTTTGCATGATGATGATGCTTTTTTTTTTTTTTTTCCCA [ACCCT] | 0.441 ± 0.036
41 | TTTTTGCATGATGATGCGCATTTTTTTTTTTTTTTTCCAT [TACCT] | 0.477 ± 0.025
42 | TTTTTGCATGATGATGCTCATTTTTTTTTTTTTTTTCCAG [GACCT] | 0.47 ± 0.02
43 | TTTTTGCATGATGATGCTGATTTTTTTTTTTTTTTTCCAC [CACCT] | 0.379 ± 0.023
44 | TTTTTGCATGATGATGCTGCTTTTTTTTTTTTTTTTCCAA [AACCT] | 0.536 ± 0.038

Row | Sequence | background-corrected fluorescence
45 | TTTTTGCATGATGCGCAGCATTTTTTTTTTTTTTTTCATT [TTACT] | 0.485 ± 0.03
46 | TTTTTGCATGATGCGCATCATTTTTTTTTTTTTTTTCATG [GTACT] | 0.524 ± 0.054
47 | TTTTTGCATGATGCGCATGATTTTTTTTTTTTTTTTCATC [CTACT] | 0.406 ± 0.0046
48 | TTTTTGCATGATGCGCATGCTTTTTTTTTTTTTTTTCATA [ATACT] | 0.518 ± 0.019
49 | TTTTTGCATGATGCTCAGCATTTTTTTTTTTTTTTTCAGT [TGACT] | 0.596 ± 0.016
50 | TTTTTGCATGATGCTCATCATTTTTTTTTTTTTTTTCAGG [GGACT] | 0.606 ± 0.034
51 | TTTTTGCATGATGCTCATGATTTTTTTTTTTTTTTTCAGC [CGACT] | 0.492 ± 0.012
52 | TTTTTGCATGATGCTCATGCTTTTTTTTTTTTTTTTCAGA [AGACT] | 0.615 ± 0.017
53 | TTTTTGCATGATGCTGAGCATTTTTTTTTTTTTTTTCACT | 0.447 ± 0.036
54 | TTTTTGCATGATGCTGATCATTTTTTTTTTTTTTTTCACG [GCACT] | 0.491 ± 0.03
55 | TTTTTGCATGATGCTGATGATTTTTTTTTTTTTTTTCACC [CCACT] | 0.382 ± 0.011
56 | TTTTTGCATGATGCTGATGCTTTTTTTTTTTTTTTTCACA [ACACT] | 0.485 ± 0.015
57 | TTTTTGCATGATGCTGCGCATTTTTTTTTTTTTTTTCAAT [TAACT] | 0.554 ± 0.027
58 | TTTTTGCATGATGCTGCTCATTTTTTTTTTTTTTTTCAAG [GAACT] | 0.515 ± 0.054
59 | TTTTTGCATGATGCTGCTGATTTTTTTTTTTTTTTTCAAC [CAACT] | 0.429 ± 0.0094
60 | TTTTTGCATGATGCTGCTGCTTTTTTTTTTTTTTTTCAAA [AAACT] | 0.562 ± 0.024
61 | TTTTTGCATGCGCAGCAGCATTTTTTTTTTTTTTTTATTT | 0.539 ± 0.04
62 | TTTTTGCATGCGCAGCATCATTTTTTTTTTTTTTTTATTG [GTTAT] | 0.522 ± 0.018
63 | TTTTTGCATGCGCAGCATGATTTTTTTTTTTTTTTTATTC [CTTAT] | 0.394 ± 0.023
64 | TTTTTGCATGCGCAGCATGCTTTTTTTTTTTTTTTTATTA [ATTAT] | 0.545 ± 0.017
65 | TTTTTGCATGCGCATCAGCATTTTTTTTTTTTTTTTATGT [TGTAT] | 0.639 ± 0.033
66 | TTTTTGCATGCGCATCATCATTTTTTTTTTTTTTTTATGG [GGTAT] | 0.576 ± 0.011
